In this assay the target is Dbf4(5)Rad53 chimera (Dbf4-SGASG-Rad53) (S. cerevisiae) (UniProt P32325). The assay is described as follows: AUC; sedimentation velocity, 50,000 rpm, 20 °C, 2 to 310 μM, 0.2 M NaCl, 0.02 M TRIS-HCl pH 8.0, 1.4 mM 2-mercaptoethanol, 5% v/v glycerol; weighted-average s isotherm fitted to a reversible monomer-dimer equilibrium; dimer to monomers.

Data on one substance can be found in PMC5041073.

As to “Dbf4(5)Rad53 chimera (Dbf4-SGASG-Rad53) (from UniProt P32325 105-220; P22216 22-162)”, the Kd – broadly, a measure of binding affinity in units of concentration – was 130 µM and the stoichiometry N – broadly, the number of molecules, sites or subunits per partner or assembly – was found to be 2.
